According to the DeepSol protein solubility set:

Test: soluble on expression in E. coli; label from the status in PepcDB or PDB records

Question: For “MTRPHQPRIDLNHGFLRFIRRNQVDRDEYNRVHEERKSEIRERIGSSDSSQDGEEKAQSNVYVPPHLRRQKKENEEKFSALKASRSQSQSDTGSEEGEGASGGGEASCPIQQKQKAFDENVRRQVRRRIERTHPTVDDICIVLANYSLQEAASKNSENSNEDLFELVLTLKSGEQKTIGVPRNTQAARLAKSLSREHHFSDSQCRNLRIFIEEQLELRFAREKSTATSSDASIPGSPTSSSESSIIEFSA”, which “soluble on expression in E. coli” value is on record?
Answer: The value was “not soluble”.

Question: Which “soluble on expression in E. coli” value does the source give for “MTRPLIVAAVIGSALAWHGSAQAQHSQAVAPAEPCTPVVLIERTGTCYAQVDPRFVTTLYFPRMVTSAVSSDERYFRASIVDDSVIVRPARDIDADALGNLSITAGEMKVSIMLGVAGHSSEVLPQIDFRALSEAEVFDARVAAEAERLHQDVKREYERRHRELEGEVTREATQLVGERLLQRHEPVRIDAIARNDDNVIVRVERGVWVGHELYLFFTVQNRSGTPYRVTHVGVFEESEHRAVADAGRAGQVEFDSAAPLVAGLLGTVRVDQFGRGVVHVRDARGAAGRRMTLRVSEERGERPVSVGGLSWR” here?
Answer: The value was “not soluble”.

Question: For “MTRVAINGFGRIGRMVFRQAIKESAFEIVAINASYPSETLAHLIKYDTVHGKFDGTVEAFEDHLLVDGKMIRLLNNRDPKELPWTDLGVEVVIEATGKFNSKEKAILHVEAGAKKVILTAPGKNEDVTIVVGVNEDQLDITKHTVISNASCTTNCLAPVVKVLDEQFGIENGLMTTVHAYTNDQKNIDNPHKDLRRARACGQSIIPTTTGAAKALAKVLPHLNGKLHGMALRVPTPNVSLVDLVVDVKRDVTVEAINDAFKTVANGALKGIVEFSEEPLVSIDFNTNTHSAIIDGLSTMVMGDRKVKVLAWYDNEWGYSRRVVDLVTLVVDELAKQENVQHI”, which “soluble on expression in E. coli” value is on record?
Answer: The value was “soluble”.

Question: Which “soluble on expression in E. coli” value does the source give for “MTSIHVQVPATTANIGAGFDCLGAALSLHNQFQFRLAGESEPFFSLELVGADVETQKLEATADNLLYRAFAKVFATLGQPVPHVNIAIDLKVPLSRGLGSSATAIVGGLVGANALAGSPLSQREIMNLAIEMEGHPDNVVPALLGGCQLSVKHQQDWVI” here?
Answer: Its value is “not soluble”.

Question: Which “soluble on expression in E. coli” value does the source give for “MTSITPSIQFFAGIFEELSNVSLRREVRTGKRIVMMKFNQLQAIEGFNSFTKQSLNSLLLTDEEGEISVTPSATRFIFGGDEGDELQGVECKFEVERDDHWERFMRFMNRYAEANDMEYGERLEHHHHHH” here?
Answer: Its value is “soluble”.

Question: Which “soluble on expression in E. coli” value does the source give for “MTSPFKVVAVSGGTYRPSRTLVLTQALIAELGQSLPIDSRVIELTDIAAPLGATLARNQAPAELQAVLDEIESADLLLVASPVYRGSYPGLLKHLFDLIDLNALIDTPVLLAATGGTERHALVLDHQLRPLFSFFQAITLPIGVYASEADFDNYRIVSEPLKARIRLAAERAAPLFGGRSELLKIALEHHHHHH” here?
Answer: Its value is “not soluble”.

Question: For “MTSQPLRVGIGGPVGSGKTALTLALCRELRERYNLAVVTNDIYTQEDAEFLVRNEALAPERIIGVETGGCPHTAIREDASINLEAVDQLNRRFPGLELILVESGGDNLSATFSPELSDLTLYVIDVSAGDKIPRKGGPGICKSDLLVINKIDLAPLVGASLDVMDRDARRMRGDKPFVFSNQKTGQGLDEIIAFIERQGLLTAA”, which “soluble on expression in E. coli” value is on record?
Answer: The value was “not soluble”.

Question: For “MTSQPTSSLQGSCSICFEDLKQNDKISAIVCGHIYHHGCISQWIATKRQCPSCRRTVPKNGFVEKLFFDVQRMGGEAEKPPEIDYREEHYKLSTSLKVEQEKLGTLNTENKNLKDTVKSLEKKIIREKDKYRQEIPKLQATINHLTISSEETAYLKRELQESKNRLKTCEFYKILTVHSSEADKQLGEYLKKNGNLDTEKFFQLMKSTNKDLTDKRREAAKEIEQLKMEVQSLKRAAQEDAAIKKV”, which “soluble on expression in E. coli” value is on record?
Answer: The value was “not soluble”.

Question: For “MTSSDSNVDPGLGIAVDLGTTTLAASLVDLSSGERLASAGSLNPQREFGADVVSRLDAACRSGEALQRMAALVREELYRLAARLLDSAGEARDRLRMVAVAGNPAMEHLLLGLPVVRLAYPPYRPLFSTSTHISAADLGWDLSGRVALFPLPGGFVGGDTVAFLFGVPDVCAPCPGPRLFLDMGTNGEMVLQCGDVLLGTSAAAGPAFEGGGLACGMAALPGAVNGIIRDGDRVRVTTIGGGQPLGICGSAVLDTVALLLEEGLLDSTGRLLPPEEIASPVGARMGTVGGEPAFILHRDAARTIYLSQGDIRQVQLAKGAIRAGMEVLCERARIRCEDIEEVVLTGSFGAVLSPRSLKFIGIFTEKMVQTTRFVREGALAGAERALTAPEGFEAVDRLARALRVIPLSGTPAFEKHFLKHIDFPSRLEHHHHHH”, which “soluble on expression in E. coli” value is on record?
Answer: Its value is “soluble”.

Question: For “MTTAHRPTFHPARGGTARGEGDLSKLSNQYSSKDMPSHTKMKYRQTGQETEADLRKKDLRRELEDKERNAIREKRARDSASSSSSHSKRQRMDQIAAESAASVDADEAVDELNSSDDDDSDEDDTAALMAELEKIKKERAEEKAARDEEIKEKEEKQRMENILAGNPLLNDTPAGSSTSGGDFTVKRRWDDDVVFKNCAKGVEERKKEVTFINDAIRSEFHKKFMDKYIK”, which “soluble on expression in E. coli” value is on record?
Answer: The value was “soluble”.

Question: For “MTTALYLEDAYKTSCETEVIKVEGNKVFVKETVFYPTGGGQECDTGVIVQDGSVFEVEKVKKEQGEIVHYIKDEAQVKLGPVKLEINWERRHNLMRHHSLLHLIGAVVYEKYGALCTGNQIYPDKARIDFNELQELSSVEVEEIVEEVNKLIKQNKEISTRYMSREEAENAVGMIKTAINLLPTTIQEIRIVTIENLDEQACGGTHVKNTSEIGTLVIDKVKSKGKQNRRFEVRAI”, which “soluble on expression in E. coli” value is on record?
Answer: The value was “not soluble”.

Question: Which “soluble on expression in E. coli” value does the source give for “MTTATSERQKTLLFKAAERQWKEEFAGKETDIRKVDCNIYKGILYQLEIRQVFLDTSLSLKKLSALLETNQTYLSNVVNKYFGCNLKELVNTYRVEYAKELLCSRRCALTELPCSCGFASKSAFYSAFSRIVGVSPLSYQTQERRLEHHHHHH” here?
Answer: Its value is “soluble”.

Question: With “MTTCFCTGARSGPTVAISADLHQALRGIVAQRMATDPAHDLAHLDRVWVNVQAIASPGADRDVLLAASYLHDLVNLPKNAPDRHTASRRSADEAAPILRDLGFDEAQIAATGHAIAAHSFSAGISPESEEARILRDADRLDALGAIGIARNFSVSGSLGRALYDPADPFCERRTPDDALYSLDHWRVKLLSLPQGMLTDKGRALAEARIALMLRFLDDFAAEIGTPLPEGWTRGLEHHHHHH” as the sequence, how does the “soluble on expression in E. coli” value read?
Answer: Its value is “soluble”.

Question: Which “soluble on expression in E. coli” value does the source give for “MTTERVLQYPNLLKIVPYLSYSKRMELSKVSPEFRSIHSRLDYSLKTMSFSQDYGAISEEGPIEVGSGILKVESIEYIFEYDENMDQVKIKCLLAPELVRFSNDKSIIRRYFHYYLAASQRIVQHVKLRESDSPFRNLQSLKIPSISWTLNGAREYPQFINFQNHVFEKLELINYESIVLTETQVKSCKHLVLKKETIYQEYTVGNENSAIRNFYCILSNMKLELVLGLNYVESFILLCNRLLLDTLHIGSSVTAIFIKEPLLNVWRTLLERYEDSRGTFMGSGHRKCAILSTDNNIKVAVFENYFGKDSNGKESFTAIKMNNNVEFDA” here?
Answer: The value was “not soluble”.

Question: Which “soluble on expression in E. coli” value does the source give for “MTTGTEEARIPLDPFVTDLDGESARLRAAGPLAAVELPGGVPVWAVTHHAEAKALLTDPRLVKDINVWGAWRRGEIPADWPLIGLANPGRSMLTVDGAEHRRLRTLVAQALTVRRVEHMRGRITELTDRLLDELPADGGVVDLKAAFAYPLPMYVVADLMGIEEARLPRLKVLFEKFFSTQTPPEEVVATLTELASIMTDTVAAKRAAPGDDLTSALIQASENGDHLTDAEIVSTLQLMVAAGHETTISLIVNAVVNLSTHPEQRALVLSGEAEWSAVVEETLRFSTPTSHVLIRFAAEDVPVGDRVIPAGDALIVSYGALGRDERAHGPTADRFDLTRTSGNRHISFGHGPHVCPGAALSRMEAGVALPALYARFPHLDLAVPAAELRNKPVVTQNDLFELPVRLAHHHH” here?
Answer: Its value is “soluble”.

Question: Which “soluble on expression in E. coli” value does the source give for “MTTHQDGNADGASATARTVSLDVVVVGAGTSGCYAAATVADAGYDVVIVERKDETEAGHIACGDALKGASDFPDAIPKSQLEPAFTNTDVDHGRFEIPQEDTVLEIPVPGELAVIDRWEYGRCLIEGANDSGVEFHYDTVVQDVLQDDSGRVTGVKAMRKGDPVTYEGDMVIDGAGALSILQDKTDLEAATFDTNVQYSQFCSAYREIIEVDEPVEWDDALVFKPTERSAGYLWYFPRTDTEINAGLGFQMNEEPMELVDDLKRDLQGRSEFEGAEVQDKLGAALPTRRPYDSAVAPGFMAVGDAAGHVNPTTGGGIAGAAYAGTYAAEQAIEAIEAGRTDDEAALWEYNERVMDHFGARYAALDVYNIFTTAYDVDDLMALLAALPGEKLAEALYGGSTSIGLGLKLKMAVKSIGHLGTIRDLYQTKKAADRLLEHYESYPSDRSGFEAWQRERDSIMDDIYEVTGAEPKYLEHHHHHH” here?
Answer: Its value is “soluble”.

Question: Which “soluble on expression in E. coli” value does the source give for “MTTKKADYIWFNGEMVRWEDAKVHVMSHALHYGTSVFEGIRCYDSHKGPVVFRHREHMQRLHDSAKIYRFPVSQSIDELMEACRDVIRKNNLTSAYIRPLIFVGDVGMGVNPPAGYSTDVIIAAFPWGAYLGAEALEQGIDAMVSSWNRAAPNTIPTAAKAGGNYLSSLLVGSEARRHGYQEGIALDVNGYISEGAGENLFEVKDGVLFTPPFTSSALPGITRDAIIKLAKELGIEVREQVLSRESLYLADEVFMSGTAAEITPVRSVDGIQVGEGRCGPVTKRIQQAFFGLFTGETEDKWGWLDQVNQ” here?
Answer: The value was “soluble”.

Question: For “MTTLLRLATAGSVDDGKSTLIGRLLYDSKAVMEDQWASVEQTSKDRGHDYTDLALVTDGLRAEREQGITIDVAYRYFATPKRKFIIADTPGHIQYTRNMVTGASTAQLVIVLVDARHGLLEQSRRHAFLASLLGIRHLVLAVNKMDLLGWDQEKFDAIRDEFHAFAARLDVQDVTSIPISALHGDNVVTKSDQTPWYEGPSLLSHLEDVYIAGDRNMVDVRFPVQYVIRPHTLEHQDHRSYAGTVASGVMRSGDEVVVLPIGKTTRITAIDGPNGPVAEAFPPMAVSVRLADDIDISRGDMIARTHNQPRITQEFDATVCWMADNAVLEPGRDYVVKHTTRTVRARIAGLDYRLDVNTLHRDKTATALKLNELGRVSLRTQVPLLLDEYTRNASTGSFILIDPDTNGTVAAGMVLRDVSARTPSPNTVRHRSLVTAQDRPPRGKTVWFTGLSGSGKSSVAMLVERKLLEKGISAYVLDGDNLRHGLNADLGFSMADRAENLRRLSHVATLLADCGHLVLVPAISPLAEHRALARKVHADAGIDFFEVFCDTPLQDCERRDPKGLYAKARAGEITHFTGIDSPYQRPKNPDLRLTPDRSIDEQAQEVIDLLESSS”, which “soluble on expression in E. coli” value is on record?
Answer: The value was “not soluble”.

Question: With “MTTMNPFLVQSTLPYLAPHFDQIANHHYRPAFDEGMQQKRAEIAAIALNPQMPDFNNTILALEQSGELLTRVTSVFFAMTAAHTNDELQRLDEQFSAELAELANDIYLNGELFARVDAVWQRRESLGLDSESIRLVEVIHQRFVLAGAKLAQADKAKLKVLNTEAATLTSQFNQRLLAANKSGGLVVNDIAQLAGMSEQEIALAAEAAREKGLDNKWLIPLLNTTQQPALAEMRDRATREKLFIAGWTRAEKNDANDTRAIIQRLVEIRAQQATLLGFPHYAAWKIADQMAKTPEAALNFMREIVPAARQRASDELASIQAVIDKQQGGFSAQPWDWAFYAEQVRREKFDLDEAQLKPYFELNTVLNEGVFWTANQLFGIKFVERFDIPVYHPDVRVWEIFDHNGVGLALFYGDFFARDSKSGGAWMGNFVEQSTLNKTHPVIYNVCNYQKPAAGEPALLLWDDVITLFHEFGHTLHGLFARQRYATLSGTNTPRDFVEFPSQINEHWATHPQVFARYARHYQSGAAMPDELQQKMRNASLFNKGYEMSELLSAALLDMRWHCLEENEAMQDVDDFELRALVAENMDLPAIPPRYRSSYFAHIFGGGYAAGYYAYLWTQMLADDGYQWFVEQGGLTRENGLRFREAILSRGNSEDLERLYRQWRGKAPKIMPMLQHRGLNI” as the sequence, how does the “soluble on expression in E. coli” value read?
Answer: The value was “soluble”.
